Results from publication PMC11365994 (Communications Biology, 2024).

Molecular target: T1, falcilysin E132Q single mutant (residues 59-1193) (Plasmodium falciparum, UniProt Q76NL8 59-1193, E132Q)
T1 sequence (looked up): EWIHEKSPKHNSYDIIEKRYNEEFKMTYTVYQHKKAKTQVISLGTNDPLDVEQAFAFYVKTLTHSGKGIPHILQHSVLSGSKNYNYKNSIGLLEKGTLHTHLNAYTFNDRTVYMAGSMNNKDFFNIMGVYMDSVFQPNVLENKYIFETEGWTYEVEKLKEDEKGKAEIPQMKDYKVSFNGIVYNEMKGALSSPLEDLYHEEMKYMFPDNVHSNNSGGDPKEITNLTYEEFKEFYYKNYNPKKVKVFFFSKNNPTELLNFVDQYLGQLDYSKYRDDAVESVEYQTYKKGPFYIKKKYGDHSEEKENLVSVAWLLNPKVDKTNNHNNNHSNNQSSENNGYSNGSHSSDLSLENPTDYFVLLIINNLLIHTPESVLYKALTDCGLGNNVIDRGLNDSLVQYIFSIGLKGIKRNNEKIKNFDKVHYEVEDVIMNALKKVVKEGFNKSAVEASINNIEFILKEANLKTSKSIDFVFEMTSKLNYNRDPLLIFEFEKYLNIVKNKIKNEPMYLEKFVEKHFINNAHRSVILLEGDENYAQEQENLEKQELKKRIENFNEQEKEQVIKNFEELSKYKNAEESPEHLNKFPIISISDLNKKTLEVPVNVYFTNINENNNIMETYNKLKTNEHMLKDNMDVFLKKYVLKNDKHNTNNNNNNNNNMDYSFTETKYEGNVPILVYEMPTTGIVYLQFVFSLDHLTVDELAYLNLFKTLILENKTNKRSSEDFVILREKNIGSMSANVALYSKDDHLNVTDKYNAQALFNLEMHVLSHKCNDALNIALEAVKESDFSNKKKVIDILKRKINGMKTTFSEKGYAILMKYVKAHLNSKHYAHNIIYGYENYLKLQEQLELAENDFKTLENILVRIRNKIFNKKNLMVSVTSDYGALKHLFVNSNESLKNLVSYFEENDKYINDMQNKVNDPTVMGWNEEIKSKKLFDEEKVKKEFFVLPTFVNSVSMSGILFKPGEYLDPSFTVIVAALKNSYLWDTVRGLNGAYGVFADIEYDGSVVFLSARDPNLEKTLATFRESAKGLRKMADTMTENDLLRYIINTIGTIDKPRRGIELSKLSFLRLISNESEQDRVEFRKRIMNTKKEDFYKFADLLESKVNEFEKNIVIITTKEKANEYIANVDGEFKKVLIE
Assay: ITC

B1: hemoglobin α chain peptide (residues L34 to D47) (peptide)
peptide: LSFPTTKTYFPHFD
Q: How did the Kd turn out when B1 was run?
A: 933 nM

B2: hemoglobin β chain peptide (residues V33 to D47) (peptide)
peptide: VVYPWTQRFFESFGD
Q: For B2, which Kd is on record?
A: 499 nM
